Numbered stars: 1 amine (or outer) side, 2 acyl side, 3 side chain; on linkers, the order of the positions; unused ones are H or OH. Square brackets hold non-standard residues; d marks the D form. * marks the point of attachment. X1 = N‑((R)-1-(2-naphthyl)ethyl)amide, C[C@@H](N*)c1ccc2ccccc2c1; 3,5‑dimethyl‑Tyr = Cc1cc(C[C@H](N[*:1])C(=O)[*:2])cc(C)c1O[*:3]; 6‑guanidinohexyl = N=C(N)NCCCCCC*
Assays:
mu opioid receptor = mu opioid receptor (human, UniProt P35372); assay: competition, [3H]diprenorphine, 25C, pH 7.8
nociceptin receptor = nociceptin receptor (human, UniProt P41146); assay: competition, [3H]nociceptin, 25C, pH 7.8
Chain of nociceptin receptor (P41146 whole entry): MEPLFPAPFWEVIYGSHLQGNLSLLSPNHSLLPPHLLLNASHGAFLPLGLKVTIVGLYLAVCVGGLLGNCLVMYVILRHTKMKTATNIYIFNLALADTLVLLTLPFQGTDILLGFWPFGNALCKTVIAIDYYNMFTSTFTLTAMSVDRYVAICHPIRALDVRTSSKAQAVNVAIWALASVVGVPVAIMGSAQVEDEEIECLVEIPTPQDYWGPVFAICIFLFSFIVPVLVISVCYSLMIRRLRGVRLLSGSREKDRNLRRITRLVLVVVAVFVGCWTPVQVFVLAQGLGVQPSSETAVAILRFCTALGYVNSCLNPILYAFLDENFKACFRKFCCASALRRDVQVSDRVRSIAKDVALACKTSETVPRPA

Chain of mu opioid receptor (P35372 whole entry): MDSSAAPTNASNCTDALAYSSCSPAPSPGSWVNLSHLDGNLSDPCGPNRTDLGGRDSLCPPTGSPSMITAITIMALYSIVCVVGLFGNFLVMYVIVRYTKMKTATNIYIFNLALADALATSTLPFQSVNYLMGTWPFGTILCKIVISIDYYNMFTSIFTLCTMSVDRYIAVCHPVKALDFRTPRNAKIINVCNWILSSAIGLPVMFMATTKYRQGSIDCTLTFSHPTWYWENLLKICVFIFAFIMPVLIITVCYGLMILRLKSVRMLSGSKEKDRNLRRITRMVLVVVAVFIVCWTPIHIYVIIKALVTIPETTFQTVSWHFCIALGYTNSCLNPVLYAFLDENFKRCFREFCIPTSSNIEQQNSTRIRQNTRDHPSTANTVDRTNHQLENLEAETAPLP

B1: Example 25 (N-α-6-guanidinohexyl-3,5-dimethyl-Tyr-Tyr-N-[(R)-1-(2-naphthyl)ethyl]-argininamide) (peptide)
chain: {6‑guanidinohexyl}-[3,5‑dimethyl‑Tyr]-Tyr-Arg-X1
SMILES: Cc1cc(C[C@H](NCCCCCCNC(=N)N)C(=O)N[C@@H](Cc2ccc(O)cc2)C(=O)N[C@@H](CCCNC(=N)N)C(=O)N[C@H](C)c2ccc3ccccc3c2)cc(C)c1O
Work on B1 yielded a Ki (mu opioid receptor) of 14 nM and a Ki (nociceptin receptor) of 0.9 nM.

B2: Example 1 (N-α-6-guanidinohexyl-Tyr-Tyr-Arg-Trp-NH2) (peptide)
chain: {6‑guanidinohexyl}-YYRW-NH2
SMILES: N=C(N)NCCCCCCN[C@@H](Cc1ccc(O)cc1)C(=O)N[C@@H](Cc1ccc(O)cc1)C(=O)N[C@@H](CCCNC(=N)N)C(=O)N[C@@H](Cc1c[nH]c2ccccc12)C(N)=O
B2 gave a Ki (mu opioid receptor) of 40 nM and a Ki (nociceptin receptor) of 0.43 nM.

B3: Example 27 (N-α-6-guanidinohexyl-3,5-dimethyl-Tyr-3,5-dimethyl-Tyr-N-[(R)-1-(2-naphthyl)ethyl]-argininamide) (peptide)
chain: {6‑guanidinohexyl}-[3,5‑dimethyl‑Tyr]-[3,5‑dimethyl‑Tyr]-Arg-X1
SMILES: Cc1cc(C[C@H](NCCCCCCNC(=N)N)C(=O)N[C@@H](Cc2cc(C)c(O)c(C)c2)C(=O)N[C@@H](CCCNC(=N)N)C(=O)N[C@H](C)c2ccc3ccccc3c2)cc(C)c1O
Binder B3 has a Ki (mu opioid receptor) of 10 nM and a Ki (nociceptin receptor) of 0.6 nM.

B4: Example 23 (N-α-6-guanidinopentyl-Tyr-Tyr-N-[(R)-1-(2-naphthyl)ethyl]-argininamide) (peptide)
chain: {6‑guanidinopentyl}-Tyr-Tyr-Arg-X1
B4 showed a Ki (mu opioid receptor) of 59 nM and a Ki (nociceptin receptor) of 1.8 nM.

— patent publication US7163921 (dated 2007)
